Measurements as given in patent US20140314667A1 (Amgen, published 2014).
Values joined by “and” are separate entries in the source; they are usually repeats but may differ in a detail not shown here. Equal values may be shown once.

What was measured:
[1] = target: T1, EGFRvIII, full length, expressed on cells (human, UniProt P00533 25-1210); assay: cell-based or functional assay
[2] = target: T1, EGFRvIII, full length, expressed on …; assay: FACS on NR6 M cells, antibody at 0.25 ug/ml, no glutathione
Experimental: XenoMax derived IgG1 recombinant antibodies were expressed, purified and quantitated as described previously. Antibodies were further assayed for their ability to internalize the EGFRvIII receptor in NR6 M cells. […] The cells were washed with cold 10% FCS in PBS and secondary antibody (SS Alexa antihuman IgG Fab) at 3 μg/ml Fab was added and incubated for 7 mins on ice. The cells were washed with cold 10% FCS in PBS once and then resuspended in cold media. Next, two sets of the triplicate were incubated at 37° C. and the remaining set was incubated at 4° C. for 1 hr. After that the cells incubated at 4° C. and one set of the cells incubated at 37° C. were treated with glutathione (as previously mentioned) for 1 hr on ice. Then the cells were washed and resuspended in 100 μl of cold 1% FCS in PBS and analyzed by FACS. The % internalization was calculated from the geometric mean obtained from the FACS analysis [(mean at 37° C. with glutathione−mean at 4° C. with glutathione)/(mean at 37° C. without glutathione−mean at 4 C with glutathione)].

[3] = target: T2, EGFRvIII-Rabbit Fc fusion protein (human; rabbit, UniProt P00533 25-645); assay: ELISA, recombinant antibody supernatant on coated EGFRvIII-RbFc, 1.5 ug/ml
T2 construct: Made in 293F cells; also called EGFRvIII-RbFc; EGFRvIII-Rab Ig Fc fusion protein; not shown: Hinge-CH2-CH3 domain of rabbit IgG (721 bp fragment)
Experimental: The secretion ELISA tests were performed as follows. For Ab secretion, 2 μg/mL of Goat anti-human IgG H+L and for antigen binding, 1.5 μg/ml of EGFRvIII-Rab Ig Fc fusion protein was coated onto Costar Labcoat Universal Binding Polystyrene 96 well plates and held overnight at four degrees. The plates were washed five times with dH₂O. Recombinant antibodies were titrated 1:2 for 7 wells from the undiluted minilipofection supernatant. The plates were washed five times with dH₂O. A goat anti-human IgG Fc-specific HRP-conjugated antibody was added at a final concentration of 1 μg/mL for 1 hour at RT for the secretion plates and binding plates detected with 1 μg/ml Rb anti Hu Fc for 1 hour at room temperature. The plates were washed five times with dH₂O. The plates were developed with the addition of TMB for 30 minutes and the ELISA was stopped by the addition of 1 M phosphoric acid. Each ELISA plate was analyzed to determine the optical density of each well at 450 nm.

[4] = target: T1, EGFRvIII, full length, expressed on …; assay: cell-based or functional assay; remark: listed apart in the source

| % internalization [1] | FACS Geometric mean, without glutathione 37 C [2] | Titer, antigen binding [3] | IC50 of cell growth inhibition (CellTiter-Glo, U251vIII cells) [4] | Binder |
| --- | --- | --- | --- | --- |
| 82.5% | 22.1 geometric mean |  |  | antibody 13.1.2 (antibody, V domains shown) VH: QVQLVESGGGVVQPGRSLRLSCAASGFTFSSYGMHWVRQAPGKGLEWVAVIWYDGSNKYYVDSVKGRFTISRDNSKNTLYLQMNSLRAEDTAVYYCARDGWQQLAPFDYWGQGTLVTVSS VL: not shown |
| 80.8% | 22.6 geometric mean | > 64 titer (1:x dilution of supernatant) |  | SC-EGFRvIII-XG1-139 (antibody, IgG1, V domains shown, Recombinant IgG1 kappa; also called sc139; SC139) VH: EVQVLESGGGLVQPGGSLRLSCAASGFTFSSYAMSWVRQAPGKGLEWVSAISGSGGSTNYADSVKGRFTISRDNSKNTLYLQMNSLRAEDTAVYYCAGSSGWSEYWGQGTLVTVSS VL: DIQMTQSPSSLSASVGDRVTITCRASQGIRNNLAWYQQKPGKAPKRLIYAASNLQSGVPSRFTGSGSGTEFTLIVSSLQPEDFATYYCLQHHSYPLTSGGGTKVEIK |
| 16.7% | 24.1 geometric mean | > 64 titer (1:x dilution of supernatant) |  | SC-EGFRvIII-XG1-250 (antibody, IgG1, V domains shown, Recombinant IgG1 kappa; also called sc250; SC250) VH: EGQLLESGGGWVQPGESLRLSCAASGFTFSSYAMSWVRQAPGKGLEWVSAISGSGGSTNYADSVKGRFTISRDNSKNTLYLQVNSLRVEDTAVYYCAGSSGWSEYWGQGTLVTVSS VL: DIQMTQSPSSLSASVGDSVTITCRTSQGIRKNLGWYQQKPGKAPKRLIYAASSLQSGVPSRFSGSGSGTEFTLTISRLQPEDFATYYCLQHHSYPLTFGGGTRVEIR |
|  |  | 64 titer (1:x dilution of supernatant) |  | SC-EGFRvIII-XG1-318 (antibody, IgG1, V domains shown, Recombinant IgG1 kappa; also called mAb ID 141A10) VH: QVQLVESGGGVVQPGRSLRLSCVASGFTLSSYGMHWVRQAPGKGLEWVAVTSYDGSKKDYADSVKGRFTISRDNSKNTLYLQMNSLRAEDTAVYYCVSEGYCDSSSCYKYYYYGMDVWGQGTTVTVSS VL: DIVMTQSPLSLPVTPGEPASISCRSSQSLLYRNGNNYLDWYLQRPGQSPQLLIYLGSNRASGVPDRFSGSGSGTDFTLKISRVEAEDVGVYYCMQALQTPRTFGQGTKVEIK |
|  |  | > 64 titer (1:x dilution of supernatant) |  | SC-EGFRvIII-XG1-342 (antibody, IgG1, V domains shown, Recombinant IgG1 kappa; also called mAb ID 124D4) VH: QVQLVESGGGVVQPGRSLRLSCVASGFTLSSYGMHWVRQAPGKGLEWVAVTSYDGSKKDYADSVKGRFTISRDNSKNTLYLQMNSLRAEDTAVYYCVSEGYCDSTSCYKYYYYGMDVWGQGTTVTVSS VL: DIVMTQSPLSLPVTPGEPASISCRSSQSLLYRNGNNYLDWYLQRPGQSPQLLIYLGSNRASGVPDRFSGSGSGTDFTLKISRVEAEDVGVYYCMQALQTPRTFGQGTKVEIK |
|  |  | > 64 titer (1:x dilution of supernatant) |  | SC-EGFRvIII-XG1-333 (antibody, IgG1, V domains shown, Recombinant IgG1 kappa; also called mAb ID 132D8) VH: QVQLVESGGGVVQPGRSLRLSCVASGFTLSSYGMHWVRQALGKGLEWVAVTSYDGSKKDYADSVKGRFTISRDNSKNTLYLQMNSLRAEDTAVYYCVSEGYCDSTSCYKYYYYGMDVWGQGTTVTVSS VL: DIVMTQSPLSLPVTPGEPASISCRSSQSLLYRNGNNYLDWYLQRPGQSPQLLIYLGSNRASGVPDRFSGSGSGTDFTLKISRVEAEDVGVYYCMQALQTPRTFGQGTKVEIK |
|  |  | > 64 titer (1:x dilution of supernatant) |  | SC-EGFRvIII-XG1-123/124 (antibody, IgG1, V domains shown, Recombinant IgG1 kappa; also called mAb ID 129A7) VH: QVQLVESGGGVVQPGRSLRLSCAASGFTLSSYGMHWVRQAPGKGLEWVAVMSYDGSKEDYADSVKGRFTISRDNSENTLYLQMNSLRAEDTAVYYCVSEGYCSSRSCYKYYYYGMDVWGQGTTVTVSS VL: DIVMTQSPLSLPVTPGEPASISCRSSQSLLYRNGNNYLDWYLQKPGQSPQLLIYLGSNRASGVPDRFSGSGSGTDFTLNISRVEAEDVGHYYCMQALQTPRTFGQGTKVEIK |
| 21.6% | 20.8 geometric mean | > 64 titer (1:x dilution of supernatant) |  | SC-EGFRvIII-XG1-211 (antibody, IgG1, V domains shown, Recombinant IgG1 kappa; also called sc211; SC211) VH: QVQLVESGGGVVQPGRSLRLSCVASGFTLSSYGMHWVRQAPGKGLEWVAVTSYDGSKKDYADSAKGRFTISRDNSKNTLYLQMNSLRAEDTAVYYCVSEGYCSSSSCYKYYYYGMDVWGQGTTVTVSS VL: DIVMTQSPLSLPVTPGEPASISCRSSQSLLYRNGNNYLDWYLQRPGQSPQLLIYLGSNRASGVPDRFSGSGSGTDFTLKISRVEAEDVGVYYCMQALQTPRTFGQGTKVEIK |
| 72.4% | 22.6 geometric mean |  |  | antibody 095 (antibody, IgG1, V domains shown, Recombinant IgG1 kappa; also called sc95; SC95) VH: QVQLQESGPFLVKPSQTLSLTCTVSGGSISSGGYYWSWIRQHPGKGLEWIGFIYYRGNTYYNPSLKSRVTISVDTSKNQFSLKLSSVTAADTAVYYCARDGYCSRTGCYGGWFDPWGQGTLVTVSP VL: DIVMTQTPLSSPVTLGQPASISCRSSQSLIHTDGNIYLSWLQQRPGQPPRLLIYKISNRFSGVPDRFSGSGAGTDFTLKISRVEAEDVGVYYCMQGTQFPITFGQGTRLEIK |
| 20% | 20.3 geometric mean | > 64 titer (1:x dilution of supernatant) |  | SC-EGFRvIII-XG2-150 (antibody, IgG1, V domains shown, kappa light chain; also called sc150; SC150) VH: QVQLQQSGPGLVKPSQTLSLTCAISGDSVSSYSSAWNWIRQSPSRGLEWLGRAYHRSRWYYEYAVSVKSRINITPDTSKNQFSLQLNSVTPEDTAVYYCARGSRFDYWGQGTLVTVSS VL: DIVMTQTPLSSPVTLGQPASISCRSSQSLVHRDGNTYLSWLQQRPGQPPRLLIYKISNRFSGVPDRFSGSGAGTDFTLKISRVEAEDVGIYFCMHTTQFPWTFGQGTRVEIK |
|  |  |  | 0.068 nM DM1 equivalents and 3 ng/mL | Ab 131-DM1 conjugate (antibody, V domains shown, DM1 linked through SMCC (MCC) to amine groups of the antibody, 3.0-3.5 DM1 molecules per antibody; sites not stated) VH: QVQLVESGGGVVQSGRSLRLSCAASGFTFRNYGMHWVRQAPGKGLEWVAVIWYDGSDKYYADSVRGRFTISRDNSKNTLYLQMNSLRAEDTAVYYCARDGYDILTGNPRDFDYWGQGTLVTVSS VL: DTVMTQTPLSSHVTLGQPASISCRSSQSLVHSDGNTYLSWLQQRPGQPPRLLIYRISRRFSGVPDRFSGSGAGTDFTLEISRVEAEDVGVYYCMQSTHVPRTFGQGTKVEIK |
|  |  | > 64 titer (1:x dilution of supernatant) |  | anti-EGFRvIII antibody 131 (antibody, human IgG1, V domains shown, Recombinant human IgG1 kappa; also called sc131) VH: QVQLVESGGGVVQSGRSLRLSCAASGFTFRNYGMHWVRQAPGKGLEWVAVIWYDGSDKYYADSVRGRFTISRDNSKNTLYLQMNSLRAEDTAVYYCARDGYDILTGNPRDFDYWGQGTLVTVSS VL: DTVMTQTPLSSHVTLGQPASISCRSSQSLVHSDGNTYLSWLQQRPGQPPRLLIYRISRRFSGVPDRFSGSGAGTDFTLEISRVEAEDVGVYYCMQSTHVPRTFGQGTKVEIK |
| 20.1% | 20 geometric mean | > 64 titer (1:x dilution of supernatant) |  | SC-EGFRvIII-XG2-170 (antibody, IgG1, V domains shown, kappa light chain; also called sc170; SC170) VH: QVQLQQSGPGLVKPSQTLSLTCAISGDSVSSNNAAWNWIRQSPARGLEWLGRTYYRSKWYNDYVVSVKSRITINPDTSKNQFSLQLNSVTPEDTAVYYCVRATAFDYWGQGTLVTVSS VL: AIVLTQTPLSSPVTLGQPASISCRSSQSLVHRDGNTYLSWLQQRPGQPPRLLIYKISNRFSGVPDRFSGSGAGTDFTLKISRVEPDDVGVYYCMHTTQLPWTFGQGTKVEIK |
